# Measurements as given in patent US20240239884A1 (Merck Sharp & Dohme, published 2024).
# T1: human IL-23 (human, UniProt P29460 23-328)
# T1 construct: also called human IL-23 cytokine; human IL-23 protein
# T1 sequence 1: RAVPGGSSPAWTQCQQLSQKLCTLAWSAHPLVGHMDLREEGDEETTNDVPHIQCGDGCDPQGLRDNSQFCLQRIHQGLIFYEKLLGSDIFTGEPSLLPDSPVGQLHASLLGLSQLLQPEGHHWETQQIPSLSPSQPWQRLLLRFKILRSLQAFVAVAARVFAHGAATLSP
# T1 sequence 2: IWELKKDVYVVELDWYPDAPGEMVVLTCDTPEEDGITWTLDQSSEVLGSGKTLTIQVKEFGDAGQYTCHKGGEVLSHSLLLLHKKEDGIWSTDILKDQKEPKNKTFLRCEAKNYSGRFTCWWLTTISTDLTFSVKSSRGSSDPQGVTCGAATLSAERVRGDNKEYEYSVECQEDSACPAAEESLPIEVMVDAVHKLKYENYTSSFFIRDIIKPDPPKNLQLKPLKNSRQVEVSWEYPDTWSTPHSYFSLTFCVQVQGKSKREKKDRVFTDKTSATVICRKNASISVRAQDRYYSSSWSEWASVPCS
# Assays:
# [1] = target: T1, human IL-23; test: equilibrium binding ELISA on plates coated with human IL-23; potency against reference material; storage at RH4 (40 C/75% RH), 6 months
# Method: (§1) The affinity of hum13B8-b in the formulations of the present invention for human IL-23 is assessed in an equilibrium binding ELISA, where serial dilutions of reference material and test samples are applied to assay plates coated with human IL-23 cytokine. This assay may be used, for example, to assess retention of biological activity in various potential therapeutic formulations. Relative potency of the test sample is assessed by comparison of the dose response curve of the test sample to the dose response curve of reference material and calculated as percent of reference.
# (§2) ELISAs are performed by methods well known in the art. Briefly, serial dilutions of hum13B8-b in a formulation of the present invention are added to wells of a microtiter plate that had been previously coated with human IL-23 protein and then blocked. After an incubation period, wells are washed and a peroxidase-conjugated goat anti-human IgG (Fc) detection antibody reagent is added. Wells are again washed, and a chemiluminescent peroxidase substrate is added. Signal is read out by chemiluminescence. […] Relative biological potency is calculated by comparing results obtained with test samples with a standard curve based on signal levels obtained with a reference sample. […]
# [2] = target: T1, human IL-23; test: equilibrium binding ELISA on plates coated with human IL-23; potency against reference material; storage at 25H (25 C/60% RH), 12 months (second Binding ELISA row)
# Method: as §1, §2
# [3] = target: T1, human IL-23; test: equilibrium binding ELISA on plates coated with human IL-23; potency against reference material; storage at 5 C, 12 months (second Binding ELISA row)
# Method: as §1, §2
# [4] = target: T1, human IL-23; test: equilibrium binding ELISA on plates coated with human IL-23; potency against reference material; storage condition 25H table, initial
# Method: as §1, §2
# [5] = target: T1, human IL-23; test: equilibrium binding ELISA on plates coated with human IL-23; potency against reference material; storage at 5 C, 18 months (second Binding ELISA row)
# Method: as §1, §2
# [6] = target: T1, human IL-23; test: equilibrium binding ELISA on plates coated with human IL-23; potency against reference material; storage at 5 C, initial
# Method: as §1, §2
# [7] = target: T1, human IL-23; test: equilibrium binding ELISA on plates coated with human IL-23; potency against reference material; storage condition RH4 table, initial
# Method: as §1, §2
# [8] = target: T1, human IL-23; test: equilibrium binding ELISA on plates coated with human IL-23; potency against reference material; storage at 5 C, 24 months (second Binding ELISA row)
# Method: as §1, §2
# [9] = target: T1, human IL-23; test: equilibrium binding ELISA on plates coated with human IL-23; potency against reference material; storage at 5 C, 6 months
# Method: as §1, §2
# [10] = target: T1, human IL-23; test: equilibrium binding ELISA on plates coated with human IL-23; potency against reference material; storage at 25H (25 C/60% RH), 6 months
# Method: as §1, §2
binder,measurement,setting,value
"humanized anti-IL-23p19 antibody 13B8-b (antibody, human IgG1, kappa, V domains shown, Made in CHO cells; Tested as a stored formulation (10 mM histidine pH 6.0, 7% sucrose, 0.05% polysorbate 80, about 100 mg/ml); also called hum13B8-b; anti-IL-23p19 mAb hum13B8-b) VH: QVQLVQSGAEVKKPGASVKVSCKASGYIFITYWMTWVRQAPGQGLEWMGQIFPASGSADYNEKFEGRVTMTTDTSTSTAYMELRSLRSDDTAVYYCARGGGGFAYWGQGTLVTVSS VL: DIQMTQSPSSLSASVGDRVTITCRTSENIYSYLAWYQQKPGKAPKLLIYNAKTLAEGVPSRFSGSGSGTDFTLTISSLQPEDFATYYCQHHYGIPFTFGQGTKVEIKR",Binding ELISA Potency relative to control [%],[1],104%
same,Binding ELISA Potency relative to control [%],[2],105%
same,Binding ELISA Potency relative to control [%],[3],98%
same,Binding ELISA Potency relative to control [%],[4],112%
same,Binding ELISA Potency relative to control [%],[5],100%
same,Binding ELISA Potency relative to control [%],[6],112%
same,Binding ELISA Potency relative to control [%],[7],112%
same,Binding ELISA Potency relative to control [%],[8],103%
same,Binding ELISA Potency relative to control [%],[9],96%
same,Binding ELISA Potency relative to control [%],[10],99%
